# *1 amine or outer side, *2 acyl side, *3 side chain or, on linkers, in order; H or OH if unused. Where no end group is shown, it is not given here. Side-chain parts run from the residue outwards. [ ]: non-standard residue; d: D form. The star is where a group is joined. C20 diacid = O=C(O)CCCCCCCCCCCCCCCCCCC(=O)*; γGlu = O=C(O)[C@H](CCC(=O)[*:2])N[*:1]; εLys = N[C@@H](CCCCN[*:1])C(=O)[*:2]; NMeI = CC[C@H](C)[C@H](NC)C(=O)O; αMeL = CC(C)C[C@](C)(N)C(=O)O; AEEA = NCCOCCOCC(=O)O; Aib = CC(C)(N)C(=O)O
# T1: human corticotropin-releasing hormone receptor 1 (CRHR1) (human, UniProt P34998 24-415)
# T1 sequence (looked up): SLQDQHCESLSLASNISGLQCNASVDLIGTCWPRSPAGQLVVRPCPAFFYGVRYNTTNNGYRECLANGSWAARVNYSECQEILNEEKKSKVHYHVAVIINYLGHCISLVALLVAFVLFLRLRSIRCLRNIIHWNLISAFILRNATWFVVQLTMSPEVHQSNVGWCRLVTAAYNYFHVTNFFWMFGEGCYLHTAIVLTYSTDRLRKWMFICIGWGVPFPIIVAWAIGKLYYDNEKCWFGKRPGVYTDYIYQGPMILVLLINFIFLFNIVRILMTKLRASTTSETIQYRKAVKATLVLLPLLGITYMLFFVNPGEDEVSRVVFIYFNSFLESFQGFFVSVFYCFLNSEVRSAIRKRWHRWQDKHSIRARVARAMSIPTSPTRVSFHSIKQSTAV
# Columns and labels:
# Assay in all cases: cell-based or functional assay
# [1] = target: T1, human corticotropin-releasing hormone …
# [2] = target: rat CRHR2 (endogenous on A7r5 cells) (rat, UniProt P47866 20-411)
# [3] = target: T1, human corticotropin-releasing hormone …; remark: listed apart in the source
# rat CRHR2 (endogenous on A7r5 cells), sequence (P47866 20-411): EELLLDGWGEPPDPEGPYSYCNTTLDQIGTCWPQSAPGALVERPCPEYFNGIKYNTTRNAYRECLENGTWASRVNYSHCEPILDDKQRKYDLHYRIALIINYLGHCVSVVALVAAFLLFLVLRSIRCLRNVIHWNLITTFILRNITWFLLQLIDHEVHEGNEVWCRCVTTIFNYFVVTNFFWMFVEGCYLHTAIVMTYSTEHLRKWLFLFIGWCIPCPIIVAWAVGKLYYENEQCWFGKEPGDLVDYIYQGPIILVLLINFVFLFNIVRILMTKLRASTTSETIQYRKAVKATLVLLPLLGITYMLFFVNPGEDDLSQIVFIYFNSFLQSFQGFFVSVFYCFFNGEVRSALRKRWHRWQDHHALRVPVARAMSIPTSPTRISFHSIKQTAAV
Binder,Y79 cAMP EC50 [1],A7r5 cAMP EC50 [2],hCRHR1 cAMP EC50 [3]
Ac-PPPIVTS[αMeL]D[dV]PT[Aib][αMeL]LQK[Aib]LEQERAEKARQQAK([γGlu-AEEA-εLys-C20 diacid])ENTEILAQV-NH2 [polypeptide comprising SEQ ID NO:46],4000 nM,0.313 nM,> 10000 nM
Ac-IVTS[αMeL]D[dV]PTG[αMeL]LQIKLEQERAEKARQQAKENTEILAQV-NH2 (not fully specified (residue 29)) [polypeptide comprising SEQ ID NO:29],1000 nM,0.123 nM,> 10000 nM
"[γGlu]GSPSIVTS[αMeL]DVPT[Aib][αMeL]LQKILEQERAEKARQQATEAAEILAQV-NH2 (not fully specified (residue 1, N-terminus); also: Glu1 linked through its gamma-carboxyl to Gly2) [polypeptide comprising SEQ ID NO:25]",620 nM,0.112 nM,> 10000 nM
Ac-PPPIVTS[αMeL]D[dV]PT[Aib][αMeL]LQKLLEQERAEKARQQAK([γGlu-AEEA-εLys-C20 diacid])EAAEILAQV-NH2 [polypeptide comprising SEQ ID NO:47],720 nM,1.06 nM,2300 nM
[NMeI]VTSLDVPIG[αMeL]LQKLIEQEKQEKEKQQAKENTEILAQV-NH2 (not fully specified (residue 29)) [polypeptide comprising SEQ ID NO:49],> 10000 nM,0.137 nM,> 10000 nM
Ac-PPPIVTS[αMeL]DVPT[Aib][αMeL]LQKLLEQERAEKARQQAK([γGlu-AEEA-εLys-C20 diacid])EAAEILAQV-NH2 [polypeptide comprising SEQ ID NO:48],4500 nM,1.16 nM,> 10000 nM

# — patent US20250163119A1, “COMPOUNDS FOR THE TREATMENT OF DIABETES OR OBESITY” (Eli Lilly and Company, priority 2023, published 2025)
